Five molecules from patent US20240279355A1 (Hoffmann-La Roche, published 2024) can be followed below.

Assay [1] has as its target T1, human STEAP-1 (six-transmembrane epithelial antigen of prostate 1) (human, UniProt Q9UHE8 1-339).
T1 construct: Full-length human STEAP1 stably expressed on CHO-K1 cells (CHO-hSTEAP1); endogenous on LnCAP and 22Rv1 cells in the functional assays; also called hSTEAP-1
Nature of the assay: flow cytometry on CHO-K1 cells stably transfected with full-length human STEAP1, PerCP anti-human IgG secondary. The text has this:
A gene encoding full-length human STEAP1 was subcloned into mammalian expression vector. The plasmid was transfected into CHO-K1 (ATCC CRL-9618) cells using Lipofectamine LTX Reagent according to the manufacturer's protocol (Invitrogen, #15338100). Stably transfected STEAP1-positive CHO cells were maintained in DMEM/F-12 medium (Gibco, #11320033) supplemented with 10% fetal bovine serum (Gibco, #16140063) and 1% GlutaMAX Supplement (Gibco; #31331-028). Two days after transfection, puromycin (Invivogen; #ant-pr-1) was added to 6 μg/mL and the cells were cultured for several passages. After initial selection, the cells with the highest cell surface expression of STEAP1 were sorted by BD FACSAria II cell sorter (BD Biosciences) and cultured to establish stable cell clones. The expression level and stability was confirmed by FACS analysis using vandortuzumab and PerCP-conjugated Fc gamma-specific goat anti-human IgG (Jackson ImmunoResearch, #109-126-097) as secondary antibody over a period of 4 weeks.
(In general: Flow cytometry measures light scatter and fluorescence of single cells or particles in a stream.)

Assay [2] addresses T1, human STEAP-1 (six-transmembrane …). Nature of the assay: cell-based ELISA on CHO-K1 cells stably expressing human STEAP1; binding EC50 of the stressed sample against the untreated sample x100. The protocol:
Characterization of Binding Potency After Stress Using a Cell-Based ELISA To quantify the reduction in binding potency caused by 1-4 weeks stress at either pH 7.4 or 6.0, a cell-based ELISA was employed using CHO-K1 cells stably expressing human STEAP1. For this cell-based ELISA, 10,000 cells were seeded per well of a 96-well plate and incubated for 18 h at 37° C., 5% CO₂. Supernatant was removed using an automated washer (BIOTEK), and 100 μl of a dilution series (10 pM-30 nM) of antibody constructs in growth medium was added to each well. After 1 h of incubation at 4° C., wells were emptied and 100 μl of 0.05% glutaraldehyde in PBS added for 10 min at RT. After 4 washes with PBS/0.025% Tween20 (PBST), 100 μl of anti-human-IgG-HRP (Jackson) diluted 1:20000 in Blocking buffer (Roche) was added and plates incubated for 1 h at room temperature (RT). Wells were washed 6 times with PBST and signal was generated using 100 μl of TMB per well, the reaction stopped after 10 minutes with 50 μl 1 M HCl and absorbance measured at 450 nm. Data (Table 4) were expressed as “% binding”, dividing the binding EC50 of the stressed sample by that of the untreated sample multiplied by 100.
On the technique in general: In an ELISA, binding on a coated surface is turned into a signal by an enzyme label.

In assay [3] the target is FcRn (neonatal Fc receptor). Kind of assay: FcRn affinity chromatography, pH gradient elution; retention time compared to protein standards with known affinities. The protocol:
FcRn was expressed, purified and biotinylated as described (Schlothauer et al., MAbs (2013) 5(4), 576-86). For coupling, the prepared receptor was added to streptavidin-sepharose (GE Healthcare). The resulting FcRn-sepharose matrix was packed in a column housing. The column was equilibrated with 20 mM 2-(N-morpholine)-ethanesulfonic acid (MES), 140 mM NaCl, pH 5.5 (eluent A) at a 0.5 ml/min flow rate. 30 μg of antibody samples were diluted at a volume ratio of 1:1 with eluent A and applied to the FcRn column. The column was washed with 5 column volumes of eluent A followed by elution with a linear gradient from 20 to 100% 20 mM Tris/HCl, 140 mM NaCl, pH 8.8 (eluent B) in 35 column volumes. The analysis was performed with a column oven at 25° C. The elution profile was monitored by continuous measurement of the absorbance at 280 nm. Retention times were compared to protein standards with known affinities.

Chain of FcRn (neonatal Fc receptor) (P55899 24-297, chain 1 of 2): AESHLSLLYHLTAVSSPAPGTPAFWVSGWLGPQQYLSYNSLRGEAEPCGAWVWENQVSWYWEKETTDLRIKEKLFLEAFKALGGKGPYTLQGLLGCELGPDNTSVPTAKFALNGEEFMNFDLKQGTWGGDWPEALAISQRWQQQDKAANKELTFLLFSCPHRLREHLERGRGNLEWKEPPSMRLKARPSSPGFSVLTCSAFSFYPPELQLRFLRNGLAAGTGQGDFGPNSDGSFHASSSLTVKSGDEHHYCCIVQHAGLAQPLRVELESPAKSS
Chain of FcRn (neonatal Fc receptor) (P61769 21-119, chain 2 of 2, further chain): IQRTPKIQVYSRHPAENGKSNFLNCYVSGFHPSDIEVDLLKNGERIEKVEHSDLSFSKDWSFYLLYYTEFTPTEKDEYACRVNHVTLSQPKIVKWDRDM
T1 sequence (Q9UHE8 whole entry): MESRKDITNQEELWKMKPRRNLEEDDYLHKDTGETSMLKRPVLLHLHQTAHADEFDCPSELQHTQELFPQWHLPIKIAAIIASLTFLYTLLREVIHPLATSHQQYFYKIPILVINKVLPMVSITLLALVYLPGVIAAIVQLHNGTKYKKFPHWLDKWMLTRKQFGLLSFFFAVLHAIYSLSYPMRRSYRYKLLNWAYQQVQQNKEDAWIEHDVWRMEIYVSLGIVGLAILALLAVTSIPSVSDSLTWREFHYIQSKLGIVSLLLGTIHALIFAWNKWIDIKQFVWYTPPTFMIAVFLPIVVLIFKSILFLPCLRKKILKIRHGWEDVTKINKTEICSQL

B1: vandortuzumab (antibody, V domains shown)
VH: EVQLVESGGGLVQPGGSLRLSCAVSGYSITSDYAWNWVRQAPGKGLEWVGYISNSGSTSYNPSLKSRFTISRDTSKNTLYLQMNSLRAEDTAVYYCARERNYDYDDYYYAMDYWGQGTLVTVSS
VL: DIQMTQSPSSLSASVGDRVTITCKSSQSLLYRSNQKNYLAWYQQKPGKAPKLLIYWASTRESGVPSRFSGSGSGTDFTLTISSLQPEDFATYYCQQYYNYPRTFGQGTKVEIK
On to B1, for which the binding result in assay [1] is on record as “binds”.

B2: Molecule A: 2+1 IgG CrossFab inverted anti-STEAP1/anti-CD3 T cell bispecific (TCB) antibody with the vandortuzumab variable domains (bispecific antibody)
heavy 1: EVQLVESGGGLVQPGGSLRLSCAVSGYSITSDYAWNWVRQAPGKGLEWVGYISNSGSTSYNPSLKSRFTISRDTSKNTLYLQMNSLRAEDTAVYYCARERNYDYDDYYYAMDYWGQGTLVTVSSASTKGPSVFPLAPSSKSTSGGTAALGCLVEDYFPEPVTVSWNSGALTSGVHTFPAVLQSSGLYSLSSVVTVPSSSLGTQTYICNVNHKPSNTKVDEKVEPKSCDKTHTCPPCPAPEAAGGPSVFLFPPKPKDTLMISRTPEVTCVVVDVSHEDPEVKFNWYVDGVEVHNAKTKPREEQYNSTYRVVSVLTVLHQDWLNGKEYKCKVSNKALGAPIEKTISKAKGQPREPQVCTLPPSRDELTKNQVSLSCAVKGFYPSDIAVEWESNGQPENNYKTTPPVLDSDGSFFLVSKLTVDKSRWQQGNVFSCSVMHEALHNHYTQKSLSLSP
heavy 2: not shown
light 1: DIQMTQSPSSLSASVGDRVTITCKSSQSLLYRSNQKNYLAWYQQKPGKAPKLLIYWASTRESGVPSRFSGSGSGTDFTLTISSLQPEDFATYYCQQYYNYPRTFGQGTKVEIKRTVAAPSVFIFPPSDRKLKSGTASVVCLLNNFYPREAKVQWKVDNALQSGNSQESVTEQDSKDSTYSLSSTLTLSKADYEKHKVYACEVTHQGLSSPVTKSFNRGEC
light 2: EVQLLESGGGLVQPGGSLRLSCAASGFTFSTYAMNWVRQAPGKGLEWVSRIRSKYNNYATYYADSVKGRFTISRDDSKNTLYLQMNSLRAEDTAVYYCVRHGNFGNSYVSWFAYWGQGTLVTVSSASVAAPSVFIFPPSDEQLKSGTASVVCLLNNFYPREAKVQWKVDNALQSGNSQESVTEQDSKDSTYSLSSTLTLSKADYEKHKVYACEVTHQGLSSPVTKSFNRGEC
notes: Two STEAP1 Fabs (charge modifications EE/RK) and one CD3 CrossFab (VH/VL exchange), human IgG1 Fc with knob-into-hole and PGLALA; also called STEAP-1 TCB antibody
With B2, in assay [2], the “Relative binding potency (%) (after 28 days at 40° C., pH 6)” value (from here on “Relative binding potency (%)”) stood at 66%. Further, the FcRn affinity in assay [3] turned out to be 0.61.

B3: Molecule B: 2+1 IgG CrossFab inverted anti-STEAP1/anti-CD3 TCB antibody, D100aE mutation in both STEAP1 binding moieties (bispecific antibody)
heavy 1: EVQLVESGGGLVQPGGSLRLSCAVSGYSITSDYAWNWVRQAPGKGLEWVGYISNSGSTSYNPSLKSRFTISRDTSKNTLYLQMNSLRAEDTAVYYCARERNYDYEDYYYAMDYWGQGTLVTVSSASTKGPSVFPLAPSSKSTSGGTAALGCLVEDYFPEPVTVSWNSGALTSGVHTFPAVLQSSGLYSLSSVVTVPSSSLGTQTYICNVNHKPSNTKVDEKVEPKSCDKTHTCPPCPAPEAAGGPSVFLFPPKPKDTLMISRTPEVTCVVVDVSHEDPEVKFNWYVDGVEVHNAKTKPREEQYNSTYRVVSVLTVLHQDWLNGKEYKCKVSNKALGAPIEKTISKAKGQPREPQVCTLPPSRDELTKNQVSLSCAVKGFYPSDIAVEWESNGQPENNYKTTPPVLDSDGSFFLVSKLTVDKSRWQQGNVFSCSVMHEALHNHYTQKSLSLSP
heavy 2: not shown
light 1: DIQMTQSPSSLSASVGDRVTITCKSSQSLLYRSNQKNYLAWYQQKPGKAPKLLIYWASTRESGVPSRFSGSGSGTDFTLTISSLQPEDFATYYCQQYYNYPRTFGQGTKVEIKRTVAAPSVFIFPPSDRKLKSGTASVVCLLNNFYPREAKVQWKVDNALQSGNSQESVTEQDSKDSTYSLSSTLTLSKADYEKHKVYACEVTHQGLSSPVTKSFNRGEC
light 2: EVQLLESGGGLVQPGGSLRLSCAASGFTFSTYAMNWVRQAPGKGLEWVSRIRSKYNNYATYYADSVKGRFTISRDDSKNTLYLQMNSLRAEDTAVYYCVRHGNFGNSYVSWFAYWGQGTLVTVSSASVAAPSVFIFPPSDEQLKSGTASVVCLLNNFYPREAKVQWKVDNALQSGNSQESVTEQDSKDSTYSLSSTLTLSKADYEKHKVYACEVTHQGLSSPVTKSFNRGEC
notes: Same format as Molecule A; also called STEAP-1 TCB antibody variant (ED)
Take B3: in assay [2], the “Relative binding potency (%)” value was determined as 79%. Besides, the FcRn affinity in assay [3] was 0.69.

B4: Molecule C: 2+1 IgG CrossFab inverted anti-STEAP1/anti-CD3 TCB antibody, D100bE mutation in both STEAP1 binding moieties (bispecific antibody)
heavy 1: EVQLVESGGGLVQPGGSLRLSCAVSGYSITSDYAWNWVRQAPGKGLEWVGYISNSGSTSYNPSLKSRFTISRDTSKNTLYLQMNSLRAEDTAVYYCARERNYDYDEYYYAMDYWGQGTLVTVSSASTKGPSVFPLAPSSKSTSGGTAALGCLVEDYFPEPVTVSWNSGALTSGVHTFPAVLQSSGLYSLSSVVTVPSSSLGTQTYICNVNHKPSNTKVDEKVEPKSCDKTHTCPPCPAPEAAGGPSVFLFPPKPKDTLMISRTPEVTCVVVDVSHEDPEVKFNWYVDGVEVHNAKTKPREEQYNSTYRVVSVLTVLHQDWLNGKEYKCKVSNKALGAPIEKTISKAKGQPREPQVCTLPPSRDELTKNQVSLSCAVKGFYPSDIAVEWESNGQPENNYKTTPPVLDSDGSFFLVSKLTVDKSRWQQGNVFSCSVMHEALHNHYTQKSLSLSP
heavy 2: not shown
light 1: DIQMTQSPSSLSASVGDRVTITCKSSQSLLYRSNQKNYLAWYQQKPGKAPKLLIYWASTRESGVPSRFSGSGSGTDFTLTISSLQPEDFATYYCQQYYNYPRTFGQGTKVEIKRTVAAPSVFIFPPSDRKLKSGTASVVCLLNNFYPREAKVQWKVDNALQSGNSQESVTEQDSKDSTYSLSSTLTLSKADYEKHKVYACEVTHQGLSSPVTKSFNRGEC
light 2: EVQLLESGGGLVQPGGSLRLSCAASGFTFSTYAMNWVRQAPGKGLEWVSRIRSKYNNYATYYADSVKGRFTISRDDSKNTLYLQMNSLRAEDTAVYYCVRHGNFGNSYVSWFAYWGQGTLVTVSSASVAAPSVFIFPPSDEQLKSGTASVVCLLNNFYPREAKVQWKVDNALQSGNSQESVTEQDSKDSTYSLSSTLTLSKADYEKHKVYACEVTHQGLSSPVTKSFNRGEC
notes: Same format as Molecule A; also called STEAP-1 TCB antibody variant (DE)
With B4, in assay [2], the “Relative binding potency (%)” value stood at 69%.

B5: Molecule D: 2+1 IgG CrossFab inverted anti-STEAP1/anti-CD3 TCB antibody, D100aE/D100bE mutations in both STEAP1 binding moieties (bispecific antibody)
heavy 1: EVQLVESGGGLVQPGGSLRLSCAVSGYSITSDYAWNWVRQAPGKGLEWVGYISNSGSTSYNPSLKSRFTISRDTSKNTLYLQMNSLRAEDTAVYYCARERNYDYEEYYYAMDYWGQGTLVTVSSASTKGPSVFPLAPSSKSTSGGTAALGCLVEDYFPEPVTVSWNSGALTSGVHTFPAVLQSSGLYSLSSVVTVPSSSLGTQTYICNVNHKPSNTKVDEKVEPKSCDKTHTCPPCPAPEAAGGPSVFLFPPKPKDTLMISRTPEVTCVVVDVSHEDPEVKFNWYVDGVEVHNAKTKPREEQYNSTYRVVSVLTVLHQDWLNGKEYKCKVSNKALGAPIEKTISKAKGQPREPQVCTLPPSRDELTKNQVSLSCAVKGFYPSDIAVEWESNGQPENNYKTTPPVLDSDGSFFLVSKLTVDKSRWQQGNVFSCSVMHEALHNHYTQKSLSLSP
heavy 2: not shown
light 1: DIQMTQSPSSLSASVGDRVTITCKSSQSLLYRSNQKNYLAWYQQKPGKAPKLLIYWASTRESGVPSRFSGSGSGTDFTLTISSLQPEDFATYYCQQYYNYPRTFGQGTKVEIKRTVAAPSVFIFPPSDRKLKSGTASVVCLLNNFYPREAKVQWKVDNALQSGNSQESVTEQDSKDSTYSLSSTLTLSKADYEKHKVYACEVTHQGLSSPVTKSFNRGEC
light 2: EVQLLESGGGLVQPGGSLRLSCAASGFTFSTYAMNWVRQAPGKGLEWVSRIRSKYNNYATYYADSVKGRFTISRDDSKNTLYLQMNSLRAEDTAVYYCVRHGNFGNSYVSWFAYWGQGTLVTVSSASVAAPSVFIFPPSDEQLKSGTASVVCLLNNFYPREAKVQWKVDNALQSGNSQESVTEQDSKDSTYSLSSTLTLSKADYEKHKVYACEVTHQGLSSPVTKSFNRGEC
notes: Same format as Molecule A; also called STEAP-1 TCB antibody variant (EE)
With B5, the “Relative binding potency (%)” value in assay [2] came out at 100%. Moreover, the FcRn affinity in assay [3] turned out to be 0.65.
